{"source": "paper PMC11321632", "about": "(2024)", "binders": {"B1": {"name": "Sirtuin 5 (SIRT5), recombinant mouse protein (enzyme)", "chain": "SSNMADFRKCFANAKHIAIISGAGVSAESGVPTFRGAGGYWRKWQAQDLATPQAFARNPSQVWEFYHYRREVMRSKEPNPGHLAIAQCEARLRDQGRRVVVITQNIDELHRKAGTKNLLEIHGTLFKTRCTSCGTVAENYRSPICPALAGKGAPEPETQDARIPVDKLPRCEEAGCGGLLRPHVVWFGENLDPAILEEVDRELALCDLCLVVGTSSVVYPAAMFAPQVASRGVPVAEFNMETTPATDRFRFHFPGPCGKTLPEALAPHETERTS"}}, "target": "Lysosomal Ras-associated protein 7a (RAB7A), recombinant mouse protein (mouse, UniProt P51150 1-207)", "sequence (P51150 whole entry)": "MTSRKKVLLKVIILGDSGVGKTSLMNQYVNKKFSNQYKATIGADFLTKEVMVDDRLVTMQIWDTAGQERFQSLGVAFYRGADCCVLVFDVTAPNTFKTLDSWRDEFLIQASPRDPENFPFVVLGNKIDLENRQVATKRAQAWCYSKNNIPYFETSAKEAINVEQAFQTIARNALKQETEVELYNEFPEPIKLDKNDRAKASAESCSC", "experiment": "SPR", "data": [{"binder": "B1", "values": [{"measurement": "Kd", "value": 31.8, "unit": "nM"}]}]}
